T1: extracellular portion of the human FcγIIA (human, UniProt P12318-1 34-215)
T1 chain: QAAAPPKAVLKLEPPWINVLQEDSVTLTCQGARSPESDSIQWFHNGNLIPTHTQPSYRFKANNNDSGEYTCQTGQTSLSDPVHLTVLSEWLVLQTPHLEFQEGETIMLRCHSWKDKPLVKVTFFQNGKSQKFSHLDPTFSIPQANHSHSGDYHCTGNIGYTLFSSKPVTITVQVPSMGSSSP

B1: Pertuzumab Vκ1|VH3 whole IgG1 (original pairing) (antibody, V domains shown)
VH: EVQLVESGGGLVQPGGSLRLSCAASGFTFTDYTMDWVRQAPGKGLEWVADVNPNSGGSIYNQRFKGRFTLSVDRSKNTLYLQMNSLRAEDTAVYYCARNLGPSFYFDYWGQGTLVTVSS
VL: DIQMTQSPSSLSASVGDRVTITCKASQDVSIGVAWYQQKPGKAPKLLIYSASYRYTGVPSRFSGSGSGTDFTLTISSLQPEDFATYYCQQYYIYPYTFGQGTKVEIK

How the values were obtained:
[1] = biological target: extracellular portion of the human FcγIIA (human) (UniProt P12318); experiment: BLI
[2] = biological target: Pertuzumab Vκ1|VH3 whole IgG1 (original pairing); experiment: BLI; Octet QKe; antibody captured by its Fc on Anti-Human Fc Capture (AHC) biosensor, Her2 in solution; KD calculated from Kon and Koff by the Octet software; triplicates
[3] = biological target: T1, extracellular portion of the human …; experiment: BLI
[4] = biological target: T1, extracellular portion of the human …; experiment: BLI

Molecule	Kd [1]	other results
Trastuzumab Vκ6|VH4 whole IgG1 variant (from UniProt P01857)	30 nM	
Pertuzumab Vκ3|VH1 whole IgG1 variant (from UniProt P01857)	11.5 nM	
Pertuzumab Vκ2|VH2 whole IgG1 variant (from UniProt P01857)	4.99 nM	
Trastuzumab Vκ3|VH1 whole IgG1 variant (from UniProt P01857)	9.3 nM	
Pertuzumab Vκ4|VH2 whole IgG1 variant (from UniProt P01857)	3.33 nM	
Pertuzumab Vκ2|VH6 whole IgG1 variant (from UniProt P01857)	3.94 nM	
Trastuzumab Vκ6|VH5 whole IgG1 variant (from UniProt P01857)	12.5 nM	
Pertuzumab Vκ5|VH3 whole IgG1 variant (from UniProt P01857)	15.7 nM	
Pertuzumab Vκ1|VH2 whole IgG1 variant (from UniProt P01857)	4.74 nM	
Her2 (from UniProt P04626 23-1255) (natural protein)		Kd [2]: 0.87 nM
Pertuzumab Vκ4|VH1 whole IgG1 variant (from UniProt P01857)	116 nM	
Trastuzumab Vκ6|VH1 whole IgG1 variant (from UniProt P01857)	47.9 nM	
Pertuzumab Vκ6|VH5 whole IgG1 variant (from UniProt P01857)	83 nM	
Trastuzumab Vκ6|VH6 whole IgG1 variant (from UniProt P01857)	39.7 nM	
Pertuzumab Vκ3|VH3 whole IgG1 variant (from UniProt P01857)	23.7 nM	
Pertuzumab Vκ6|VH7 whole IgG1 variant (from UniProt P01857)	72.7 nM	
Trastuzumab Vκ2|VH6 whole IgG1 variant (from UniProt P01857)	14.7 nM	
B1		Kd [3]: 9.31 nM; koff [4]: 0.00154 s⁻¹
